Molecular target: anti-VEEV human IgG1 antibody F5 with the loss of function Fc mutations L234A and L235A (hF5-LALA) (human)
Experiment: ELISA

Substance “mouse complement component C1q from normal mouse serum (from UniProt P98086;P14106;Q02105) (complex)” has a fold reduction in binding against hF5-WT at 2.8 µg/ml of 5.1 fold.

Reference: paper PMC10766394
